Where a chain is given by its changes, count along the chain named. Values belong to the binder of their own block, whether it stands above or below them.
Experiments:
Assay in all cases: positional peptide library pulldown on immobilised Nb, LC-MS of supernatant; signal ratio to control GFP-Nb (1 = not captured, near 0 = captured)
BC2T V7P = molecular target: T1, BC2T V7P
T1 construct: positional scanning library member
T1 peptide: Ac-PDRKAAPSHWQQ-NH2
Method in brief: (§1)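 Unbound peptide left in supernatant after 1 h pulldown in PBS/0.01% CHAPS measured by reversed-phase LC-MS (8–30% eluent B gradient, 20 min).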

BC2T K4W = molecular target: T2, BC2T K4W
T2 construct: positional scanning library member
T2 peptide: Ac-PDRWAAVSHWQQ-NH2
Method in brief: as §1

BC2T D2S = molecular target: T3, BC2T D2S
T3 construct: positional scanning library member
T3 peptide: Ac-PSRKAAVSHWQQ-NH2
Method in brief: as §1

BC2T A5S = molecular target: T4, BC2T A5S
T4 construct: positional scanning library member
T4 peptide: Ac-PDRKSAVSHWQQ-NH2
Method in brief: as §1

BC2T V7S = molecular target: T5, BC2T V7S
T5 construct: positional scanning library member
T5 peptide: Ac-PDRKAASSHWQQ-NH2
Method in brief: as §1

BC2T D2T = molecular target: T6, BC2T D2T
T6 construct: positional scanning library member
T6 peptide: Ac-PTRKAAVSHWQQ-NH2
Method in brief: as §1

BC2T A5T = molecular target: T7, BC2T A5T
T7 construct: positional scanning library member
T7 peptide: Ac-PDRKTAVSHWQQ-NH2
Method in brief: as §1

BC2T V7T = molecular target: T8, BC2T V7T
T8 construct: positional scanning library member
T8 peptide: Ac-PDRKAATSHWQQ-NH2
Method in brief: as §1

BC2T P1N = molecular target: T9, BC2T P1N
T9 construct: positional scanning library member
T9 peptide: Ac-NDRKAAVSHWQQ-NH2
Method in brief: as §1

BC2T V7Q = molecular target: T10, BC2T V7Q
T10 construct: positional scanning library member
T10 peptide: Ac-PDRKAAQSHWQQ-NH2
Method in brief: as §1

BC2T V7Y = molecular target: T11, BC2T V7Y
T11 construct: positional scanning library member
T11 peptide: Ac-PDRKAAYSHWQQ-NH2
Method in brief: as §1

BC2T K4C(Abu) = molecular target: T12, BC2T K4C(Abu) (not fully specified (residue 4))
T12 construct: positional scanning library member
T12 peptide: Ac-PDRCAAVSHWQQ-NH2
Method in brief: as §1

BC2T R3K = molecular target: T13, BC2T R3K
T13 construct: positional scanning library member
T13 peptide: Ac-PDKKAAVSHWQQ-NH2
Method in brief: as §1

BC2T K4P = molecular target: T14, BC2T K4P
T14 construct: positional scanning library member
T14 peptide: Ac-PDRPAAVSHWQQ-NH2
Method in brief: as §1

BC2T A5K = molecular target: T15, BC2T A5K
T15 construct: positional scanning library member
T15 peptide: Ac-PDRKKAVSHWQQ-NH2
Method in brief: as §1

BC2T K4R = molecular target: T16, BC2T K4R
T16 construct: positional scanning library member
T16 peptide: Ac-PDRRAAVSHWQQ-NH2
Method in brief: as §1

BC2T D2H = molecular target: T17, BC2T D2H
T17 construct: positional scanning library member
T17 peptide: Ac-PHRKAAVSHWQQ-NH2
Method in brief: as §1

BC2T D2E = molecular target: T18, BC2T D2E
T18 construct: positional scanning library member
T18 peptide: Ac-PERKAAVSHWQQ-NH2
Method in brief: as §1

BC2T K4E = molecular target: T19, BC2T K4E
T19 construct: positional scanning library member
T19 peptide: Ac-PDREAAVSHWQQ-NH2
Method in brief: as §1

BC2T A6E = molecular target: T20, BC2T A6E
T20 construct: positional scanning library member
T20 peptide: Ac-PDRKAEVSHWQQ-NH2
Method in brief: as §1

BC2T V7E = molecular target: T21, BC2T V7E
T21 construct: positional scanning library member
T21 peptide: Ac-PDRKAAESHWQQ-NH2
Method in brief: as §1

BC2T Q11E = molecular target: T22, BC2T Q11E
T22 construct: positional scanning library member
T22 peptide: Ac-PDRKAAVSHWEQ-NH2
Method in brief: as §1

ratio (BC2T V7P): 0.9 | ratio (BC2T K4W): 0.7 | ratio (BC2T D2S): 0.2 | ratio (BC2T A5S): 0.2 | ratio (BC2T V7S): 0.3 | ratio (BC2T D2T): 0.1 | ratio (BC2T A5T): 0.1 | ratio (BC2T V7T): 0.2 | ratio (BC2T P1N): 0.7 | ratio (BC2T V7Q): 0.4 | ratio (BC2T V7Y): 0.2 | ratio (BC2T K4C(Abu)): 0.2 | ratio (BC2T R3K): 0.3 | ratio (BC2T K4P): 1 | ratio (BC2T A5K): 0 | ratio (BC2T K4R): 0.1 | ratio (BC2T D2H): 0.1 | ratio (BC2T D2E): 0.2 | ratio (BC2T K4E): 0.9 | ratio (BC2T A6E): 1.1 | ratio (BC2T V7E): 0.9
B1: BC2-NbR106E (VHH)
VHH: QVQLVESGGGLVQPGGSLTLSCTASGFTLDHYDIGWFRQAPGKEREGVSCINNSDDDTYYADSVKGRFTIFMDNAKDTVYLQMNSLKPEDTAIYYCAEARGCKRGEYEYDFWGQGTQVTVSS
notes: headlock mutant of BC2-Nb; immobilised on beads in this assay

B2: BC2 nanobody (VHH)
VHH: B1 VHH with E106R
notes: immobilised on beads in this assay; also called BC2-Nb; BC2 nanotrap (immobilised)
ratio (BC2T Q11E): 0.1

Source: patent US20170137467A1 (CHROMOTEK, published 2017)
